The series can be described thus: label from the status in PepcDB records.
“MWWGVAAALLANVLYSTGFVLEKRALASLPEVDIRRPARLLRLVLGSPLWIGGSLSLAAGFGAQLAVYRTLPIAAAQGIFVSGLVLLVLLSARLLGEETTGRERYALGAILAALLMVVLSLREGSDKVSRSAPVPLILLVCVPSLAMGVWLYGSAERRARHRHRMPTTGVEYGVAVGLLYGVSSLAIKGVSSYLTPADGLGGAVVGLLRSPYPYLLLFTGVFGLVMSQAALQRCRASLIVPVCTTVTCLFTAVLGTLAFGEALPHEPLRLALRLAGTALAVSVLLAMPKHDTAPQPSAAPKELTPP”: the protein production result is recorded as “failed”.

Regarding “MWWSGLASQSKAQETPGRRGLEERKQLIMEIYNSLRSADIASIEFEGPEIAVYIRNPKFIVENENVVKDLARKLRKRIVVRTHPKSRKSMEYTIKFIRENVPPDVGIVDIQFDDVLGEVRVIAEKPGKLMGRGKVFRNLVLAETGWRLEVYRKPLLQSGLLDSVLRHLQRHAEERRRALRDIGERIFRDTLIGTRHVRVVGLGSFGEVGRSAILVDTGESKVLLDAGLSPSGYGPDSYPYYWSPEFRVDELDAVVISHAHLDHVGTLPLLFKYGFRGPVYATPPTRDIMIIVLRDLINLMRKAQGEPPFEPRDVEKALTRLIPVNYNTVTDVAPDIKMTFINAGHILGSSMVHLHIGQGLYNILYTADFKFYRIKNDRSTRLLPPAEYSFQRVEALIMEATYGSKETQPRAEAEEELINLVNKVYKRGGKLLIPVMAVGRGQEILVVLNEALRSGKIPEIPIYVDGMVYEVTAVYTNYPELLVKPIRDRILKQGENPFEGPTTVYVTDHYKRDEAMYSDKPAIILSTSGMMNGGPIVEYFKYLADDPRNALAFVSYQAPGTLGRRLQSGEREIELEMDGGIRRIKVNMEIVSIEGFTGHSTRGELLSFLRRLNPKPRNIVLNHGEPSAIAALAHTVKTGWSKLGFESPPIIEAPENLEGVRLYPRNLKMKLALQHS”, the protein production entry is recorded as “failed”. “MYADYEYYEKEYLLGKEPVIAERNYLYYEKQARAEVDKITFNRCRGLDEIPEEVKDCVCDVAEYLCKYDRYSGSDAPGPLASFGNDGETGTYDLSNSIYTESKRKEKIQETLYKHLADTGLLYSGR”: the protein production result is given as “failed”. “MYCKGRREREAYIVVKIDLITGFLGSGKTTFIRKYVKYLVDKGYNVGILENDYGAVNVDMMLLQDLMGPNCHAEMVAGGCGEDCHKRRFKTKLIAMGMSGYDRVIVEPSGIFDVDEFFDTLHEEPLDRWYEVGSIIAIVDAKLDTDMSRQSRYVLASEIANCGALVMSKTSGVSEDEISHTKEFVNKTLEEFQCRRRFDGDVITKAWELFGSEDYERFMSVGYKLNDFTKLWFKQSDVYSSVYIMNRNFTREQLVDIVNRVFSDKDCGDVFRIKGFFSVEQDSWLELNATVHKTEIKPIDKGQKIIIIIGSDLMEDKIKQYFEE”: the protein production result was “failed”. “MYDMVREKTYYFMIVERITIMTEKMTRMTQFVKEEIANAITHGIGAILSIPALIILIIHASKHGTASAVVAFTVYGVSMFLLYLFSTLLHSIHHPKVEKLFTILDHSAIYLLIAGTYTPFLLITLRGPLGWTLLAIIWTLAIGGIIFKIFFVRRFIKASTLCYIIMGWLIIVAIKPLYENLTGHGFSLLLAGGILYSVGAIFFLWEKLPFNHAIWHLFVLGGSAMMFFCVLFYVLPTAS”: the protein production result is “failed”. As to “MYDNENPNGFGSNPEENNDDNISGTENNNFEEVNSQQVSQDAVNSSEQNTEQTAEQESSVYRQSYVNDEHHNADDVSGNGTYYSQGSNNSSNDSTQNGSYYNNTQDGSYYNSNSNNSQNNGYYYSTNDSQTNNGYNYNSNNNNNGNGKKKKKKRTLIAVVAVCVVLLAGTIGISAAYFSKNKDSLTNVLEDGTLSNNNNNSNSNNDNSSDSGNYESIGSTNTQNDANSSSTSGVTVTDVSSVVSSAMPSVVAITSKTLVESRNDYSQDIWEYYFGGGNSGNNKSNSYEEDAAGSGIIVDQTSTELLIVTNNHVVEGADSLKIQFAGTESKDSVDGYIKGTDSTKDVAVVAVKLKDIPSDVLKNIKKATLGDSDKVNVGEGVIAIGNALGYGQSVTTGIISAKDRKVQLENQTMTLLQTDAAINGGNSGGALLNASGEVIGINVAKYSSSGSSSNASVEGMGFAIPISSVKDIISDLETKETRTKVSEDERGYLGISGFDVDEQTSQAYSIPQGIQVQSVVKGGPAENAGIAASDVITKFDGQDVSSMASLQSMLEYYKKGEQVKVTIEYRDGREYKTKDVTVTLGDKSVIETTQNAAN”, the protein production result was “failed”. As to “MYDYSILPNRIILCVDLRSFYASVSCIKMGLDPMHTKLAVVGDVNRNGSIVLAATPPLKALGVKKMARLYEIPRRKDILVVNPIMSTYIKCSNYITKLALQYVPIEDFHQYSIDEFFMDITDSIHLFAQDPYEFAMKFKREIYDHTRIECTIGIAPNPLMSKVALDIEAKKNKDGIAFWQYEDIPTKLWSIRPLNKFWGISYKTEEKLNRKGIYSIGDLANYPLKYLKQSFGKIGEELHLHSHGIDFSRISEKYVPATTSIGKSQILMRDYTIEEFPIILLEHIEEVCYRLRRQTKLAQTIHFSVGYSKSYTGGIRKTHTLNRPTNLTMDIYHICTYFLHQQYTGEPIRSINISLTNLIQEGEEQISLFDNVTKREQEMKLTKVMDEIRTKFGKNSILRGISYTHSATARHRNTLIGGHKS”, the protein production entry was “failed”.

Regarding “MYELERTVFQELFRRVLDNQYQVTPEERKALVQCDNSIVRRGIFSALTSFSLIYYGLKQFQKHFNASSSLRLRPAIPATLLGLTTGFFYGRTAAPGCLQNLMNVPNSAVAEEVKIIIRELYEQSPSSTTGQTIATRYGFLLDSTTVPMKISDVGFGDNENSDWKEVDTWQSDNSIYQGTVQKRVGPRNSDKRRVIRPNDKVENHIHQDALANSTSSLPSNETDYGFASLPGYSSSQSDSDVLESWDIGNDNQQENTNNEPNVKKESHRRRRRNEFRKSNGQVKSLESDPTEQGTIQTDTKDLLSSRQDTDALWDSSFSGKGSSATAF”, the protein production result was “failed”. Take “MYETFMKRAIELAKKGLGRVNPNPPVGAVVVKDGRIIAEGFHPYFGGPHAERMAIESARKKGEDLRGATLIVTLEPCDHHGKTPPCTDLIIESGIKTVVIGTRDPNPVSGNGVEKFRNHGIEVIEGVLEEEVKKLCEFFITYVTKKRPFVALKYASTLDGKIADHRGDSKWITDKLRFKVHEMRNIYSAVLVGAGTVLKDNPQLTCRLKEGRNPVRVILDRKGVLSGKVFRVFEENARVIVFTESEEAEYPPHVEKALSDCSVESILRNLYERDIDSVLVEGGSKVFSEFLDHADVVFGFYSTKIFGKGLDVFSGYLSDVSVPPKFKVVNVEFSDSEFLVEMRPCSRE”: the protein production entry is reported as “not failed”. Take “MYILIGGMGSMGSNLAKNLLKMGHTVAAVDTDPLACQYAREKIGVMAFEGSAVNTSVLLEAGVRKAGAVIAALQEDALNLALVTLSKHYGVPQIVVRMSDGDFAEPYRLAGATHIISTTELALNRVINAIEYPQVDAMMHFEQGQIEVLKLSIPPNCTIVGRSVAAIAQDPRFPSGTLIIGYQANAHEDLKIPNGNTLLEDGSTILAVTKPELVRQLIDFMGLCQS”: the protein production result is recorded as “failed”. Turning to “MYIPNAFRESDTHNLQEHMDKTRLAILVTQGDDGLHATHLPLLLRSDEGPYGTLYGHMAKANPQWQQLNADAEAMVIFPGEDAYVSPSFYPSKAEHGKVVPTWNYLAVHAYGQAECFTDPDRLHQLLNDLTDRHESSRAQPWSINDAPADYIAKMLGAIVGFSIPVQRL”, the protein production entry is listed as “failed”. With “MYKRRVDPELEDLTSRAREALALFISISLRDNTELNLVVPNGPSWLSHVDKKDLYLNDETLKKITDILVAKDVTGNYNIVNVAIAAAPQHSQKRFVIYIKTSIYVEIVVIGNMKSNLTLIADGQDSTIITFNLSSSNSKRTFNTATFASNGDGFIRVDMCFRNTTWPVKGPVVTLRVNGDMSIIYRCRVEEYQDALYPHKNRQCYREYFLMDTVDFICGNAAAVFQFCQIVHMDG”, the protein production result is listed as “not failed”. Turning to “MYLEKLQQWRYATADFSGAHITDDVLDKLLNTTRLTASSYGLQPYCTLVIRNKGLREQLVNHSFGQQKVADSSALVIFAAKTGAVADIVDPYISELSQQRQLTNEEAENTRNYFTQKLQAMSAATRKEWAVRQAYIGLGTFLLAAAELEVDSCPMEGIEHDAYDNILSLKDLGLSTVFACPVGYRSEADTTQFQKKVRQPLSRFKVVL”, the protein production result was “not failed”. As for “MYLLTFILIRINKYSDKAKKSAILVLLFLSLGAILKILEIADPSVKMDYIIQLVYSLTVFGAFVALSFYIKFLETPPSLTVHHSTKLPKNGGSEPKLVGAYLVSGSRSRIVDLINMIRELNAPILVFTRYPTFYQDLGENIKVIWITQASEDGIPPTKLHVIQDYAIKFAKENKYAVVIIDCVEYLLLYNEFASVFKFLASLKDYLIMMNSALVLAVDEKALDEKYYTLLLNEFEPL”, the protein production entry is “failed”.
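Further: failed if final PepcDB status was selected cloned or expressed and not failed if soluble or beyond.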
